Where a chain is given by its changes, count along the chain named. Names may count otherwise. Values belong to the binder of their own block, whether it stands above or below them.
Tests used:
[1] = target: T1, E3mUU(ΔUFIM) with UFBP1(R265A) (UniProt O94874 1-179; Q96HY6 204-314, R265A); assay: SEC; analytical SEC, Superdex 200 Increase 3.2/300, 25 mM HEPES pH 7.5, 200 mM NaCl, 0.5 mM TCEP; components mixed and kept on ice before loading; peak fractions on Coomassie gels; details: both partners purified
T1 construct: UFL1; limits as stated for the crystallised E3mUU(ΔUFIM) construct; UFBP1 204-C; limits as for m14; source: recombinant, purified (HisTrap, HiLoad 26/600 Superdex 75 pg)

E3mUU(ΔUFIM) = target: T2, E3mUU(ΔUFIM) (UniProt O94874 1-179; Q96HY6 204-314); assay: as above; details: both partners purified
T2 construct: UFL1; limits as stated for the crystallised E3mUU(ΔUFIM) construct; for the crystal 6×His-TEV-UFL1(1–179) was co-expressed with a UFC1-UFBP1 204-C fusion and the His tag was not cleaved; source: recombinant, purified (HisTrap, HiLoad 26/600 Superdex 75 pg)

binding result [1]: binds
B1: UFC1 (enzyme)
chain: MADEATRRVVSEIPVLKTNAGPRDRELWVQRLKEEYQSLIRYVENNKNADNDWFRLESNKEGTRWFGKCWYIHDLLKYEFDIEFDIPITYPTTAPEIAVPELDGKTAKMYRGGKICLTDHFKPLWARNVPKFGLAHLMALGLGPWLAVEIPDLIQKGVIQHKEKCNQ
notes: free UFC1 in SEC and ITC; also called E2

binding result (E3mUU(ΔUFIM)): binds
B2: UFC1(D50A) (enzyme)
chain: B1 chain with D50A

Source: publication PMC10937380 (Nature, 2024)
